A word on the Kd: it is the equilibrium constant for the complex coming apart.

One test concerns the target human S100A6 (human). Kind of test: ITC. (In general: Isothermal titration calorimetry measures the heat released or taken up as one component is titrated into another.)
A further test addresses T1, human S100A5 (human).
T1 sequence (P33763 1-92, looked up): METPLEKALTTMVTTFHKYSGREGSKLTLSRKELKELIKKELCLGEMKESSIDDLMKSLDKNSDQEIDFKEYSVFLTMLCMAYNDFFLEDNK
The test is described as follows: ITC.

As for “peptide from Siah-interacting protein (SIP) (from UniProt Q9HB71 188-218)”, the Kd was 20 µM with human S100A6 (human) and above 100 µM with human S100A5 (human).

Values taken from paper doi:10.1101/207324.
